Data published in paper PMC3851687 (2013).

Tests used:
[1] = target: T1, humanized dPHD-HD1 (Pygo PHD F773W in complex with Lgs HD1) (Drosophila, UniProt Q9V9W8 747-804; Q961D9 321-353, F773W); experiment: ITC; linked PHD-HD1 complex (uncleaved)
T1 sequence 1: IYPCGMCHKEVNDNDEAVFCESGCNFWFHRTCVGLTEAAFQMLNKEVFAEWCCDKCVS
T1 sequence 2: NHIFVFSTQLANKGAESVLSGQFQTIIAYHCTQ

[2] = target: T1, humanized dPHD-HD1 (Pygo PHD F773W in …); experiment: ITC; linked PHD-HD1 complex (uncleaved linker)

Kd [1]: 7.5 µM
Kd [2]: 7.5 µM
Binder: ARTKQTARKSTGGKA (dimethyl-lysine at K4 (K4me2)) [H3K4me2 15-mer (histone H3 tail peptide dimethylated at lysine 4)]
